Test results from article PMC9529347.

Target: SARS-CoV-1 RBD-Fc (RBD N321-P513 fused to CH2 and CH3 of mouse IgG1) (SARS-CoV-1)
Experiment: SPR

Chain of soluble human ACE2, truncated ectodomain (S19-D615), C-terminal 6xHIS-tag (Q9BYF1 19-615): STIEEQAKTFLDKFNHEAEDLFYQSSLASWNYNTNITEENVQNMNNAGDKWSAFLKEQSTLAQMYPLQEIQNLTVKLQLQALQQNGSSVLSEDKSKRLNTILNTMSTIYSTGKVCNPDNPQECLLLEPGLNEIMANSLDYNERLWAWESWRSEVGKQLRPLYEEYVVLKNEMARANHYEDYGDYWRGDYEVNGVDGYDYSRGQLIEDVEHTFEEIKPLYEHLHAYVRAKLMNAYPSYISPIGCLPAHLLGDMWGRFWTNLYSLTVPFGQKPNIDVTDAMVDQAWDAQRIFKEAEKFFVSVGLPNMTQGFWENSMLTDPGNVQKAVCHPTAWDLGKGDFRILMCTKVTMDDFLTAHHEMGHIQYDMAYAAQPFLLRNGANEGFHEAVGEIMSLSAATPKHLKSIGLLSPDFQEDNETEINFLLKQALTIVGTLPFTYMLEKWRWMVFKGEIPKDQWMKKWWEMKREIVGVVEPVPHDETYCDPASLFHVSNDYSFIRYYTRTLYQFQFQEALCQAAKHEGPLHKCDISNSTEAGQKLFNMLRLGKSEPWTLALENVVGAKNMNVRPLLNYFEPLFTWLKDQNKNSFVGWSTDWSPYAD

**Q.** “soluble human ACE2, truncated ectodomain (S19-D615), C-terminal 6xHIS-tag (from UniProt Q9BYF1 19-615) (receptor)” was tested. Which Kd did it give?
**A.** The Kd was 385 nM.
